In article PMC12248463, “Humanized scFv Molecule Specific to an Extracellular Epitope of P2X4R as Therapy for Chronic Pain Management” (Cells, 2025):

T1: human P2X4R peptide (extracellular 13-amino-acid peptide fragment of human P2X4R) (Homo sapiens, UniProt Q99571, biotinylated (position not given) where immobilised as ligand)
T1 construct: P2X purinoceptor 4, human; extracellular 13-amino-acid peptide fragment, the counterpart of rat residues 301-313 (11/13 residues identical to the rat peptide); also called human P2X4 peptide; source: synthetic peptide (GenScript)
T1 chain: RDLAGNEQRTLIK

B1: humanized P2X4R scFv HC3-LC3 (lead) (scFv, V domains shown)
VH: EVQLVESGGGLVQPGGSLRLSCATSGFTFTDYYMHWVRQAPGKGLEWVGFIRNKANGYTTEYSASVKGRFTISRDNSKNTLYLQMNSLRAEDTAVYYCARWEGDLLYAMDYWGQGTLVTVSS
VL: DIQMTQSPSSLSASVGDRVTITCRASQGISNYLNWYQQKPGKAPKLLIYYTSSLHSGVPSRFSGSGSGTDFTLTISSLQPEDFAYYYCQQYSKLPWTFGGGTKVEIK
notes: humanized VH hscFv95.HC3 (CDRs of murine mscFv95 grafted on a human framework); 15-amino-acid linker, printed as (G4S)3; humanized VL hscFv95.LC3, as the VL of m3; Cloned NcoI/NotI into a pET32a-His vector; Captured on HIS1K penta-His sensors in the Octet assay; also called hscFv HC3-LC3; P2X4R hscFv; source: E. coli Rosetta-gami (DE3), purified (HisTrap, SEC)
B2: humanized P2X4R scFv HC2-LC3 (scFv, V domains shown)
VH: QVQLQESGPGLVKPSQTLSLTCTTSGFTFTDYYMSWVRQAPGKGLEWIGFIRNKANGYTTEYSASVKGRFTISRDNSKNQFSLRLSSVTAADTAVYYCARWEGDLLYAMDYWGQGTTVTVSS
VL: B1 VL
notes: humanized VH hscFv95.HC2, as the VH of m2; 15-amino-acid linker, printed as (G4S)3; humanized VL hscFv95.LC3 (CDRs of murine mscFv95 grafted on a human framework); Cloned NcoI/NotI into a pET32a-His vector; also called hscFv95.HC2 + hscFv95.LC3; source: E. coli Rosetta-gami (DE3), purified (HisTrap, SEC)
B3: humanized P2X4R scFv HC3-LC1 (scFv, V domains shown)
VH: B1 VH
VL: DIQMTQTTSSLSASLGDRVTISCSASQGISNYLNWYQQKPDGTVKLLIYYTSSLHSGVPSRFSGSGSGTDYSLTISNLEQEDIATYYCQQYSKLPWTFGGGTKLEIK
notes: humanized VH hscFv95.HC3, as the VH of m4; 15-amino-acid linker, printed as (G4S)3; humanized VL hscFv95.LC1, as the VL of m1; Cloned NcoI/NotI into a pET32a-His vector; also called hscFv95.HC3 + hscFv95.LC1; source: E. coli Rosetta-gami (DE3), purified (HisTrap, SEC)
B4: humanized P2X4R scFv HC1-LC1 (scFv, V domains shown)
VH: EVKLVESGGGLVQPGGSLRLSCATSGFTFTDYYMSWVRQPPGKALEWLGFIRNKANGYTTEYSASVKGRFTISRDNSQSILYLQMNTLRAEDSATYYCARWEGDLLYAMDYWGQGTSVTVSS
VL: B3 VL
notes: humanized VH hscFv95.HC1 (CDRs of murine mscFv95 grafted on a human framework); 15-amino-acid linker, printed as (G4S)3; humanized VL hscFv95.LC1 (CDRs of murine mscFv95 grafted on a human framework); Cloned NcoI/NotI into a pET32a-His vector; also called hscFv95.HC1 + hscFv95.LC1; source: E. coli Rosetta-gami (DE3), purified (HisTrap, SEC)
B5: humanized P2X4R scFv HC2-LC1 (scFv, V domains shown)
VH: B2 VH
VL: B3 VL
notes: humanized VH hscFv95.HC2 (CDRs of murine mscFv95 grafted on a human framework); 15-amino-acid linker, printed as (G4S)3; humanized VL hscFv95.LC1, as the VL of m1; Cloned NcoI/NotI into a pET32a-His vector; also called hscFv95.HC2 + hscFv95.LC1; source: E. coli Rosetta-gami (DE3), purified (HisTrap, SEC)

Molecular target: T1, human P2X4R peptide (extracellular …)
Test: BLI; Octet RED384; hscFv (5 ug/mL) captured on HIS1K penta-His sensors; peptide in 7 three-fold dilutions, 1.03-250 nM; 1X KB (PBS pH 7.4, 0.02% Tween-20, 0.1% albumin, 0.05% sodium azide); association 240 s, dissociation 420 s; global 1:1 fit
Conditions: both partners purified

Binder | Kd
B1 | 2.5 nM

Molecular target: T1, human P2X4R peptide (extracellular …)
Test: ELISA; indirect ELISA, purified hscFvs on human P2X4 peptide, triplicate wells (Figure 3B)
Conditions: both partners purified

Binder | Kd
B1 | 2.3 nM
B2 | 29 nM
B3 | 4.7 nM
B4 | 24 nM
B5 | 12 nM
